The values below come from the supplement of paper PMC6379048.

Usually EC50 stands for the concentration that produces a half-maximal response. Low values mean greater potency, high ones weaker potency.

What all share (experiment): EC50 of free RNA motif oligo competing protein binding to immobilised probe
For one series, the target named is MSI2 (UniProt Q96DH6). In outline: (§1)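 HEK293-FT lysate (2.5 mg protein/well) was treated with free RNA oligos (0 nM to 30 μM) for 1 h at 4°C, then with the same oligos on NHS-Sepharose beads for 30 min at 4°C. Bound proteins were quantified by label-free LC-MS/MS relative to the control. EC50 came from a four-parameter log-logistic fit, and Kd is EC50 times a protein-dependent depletion factor.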
MSI2, sequence (Q96DH6 whole entry): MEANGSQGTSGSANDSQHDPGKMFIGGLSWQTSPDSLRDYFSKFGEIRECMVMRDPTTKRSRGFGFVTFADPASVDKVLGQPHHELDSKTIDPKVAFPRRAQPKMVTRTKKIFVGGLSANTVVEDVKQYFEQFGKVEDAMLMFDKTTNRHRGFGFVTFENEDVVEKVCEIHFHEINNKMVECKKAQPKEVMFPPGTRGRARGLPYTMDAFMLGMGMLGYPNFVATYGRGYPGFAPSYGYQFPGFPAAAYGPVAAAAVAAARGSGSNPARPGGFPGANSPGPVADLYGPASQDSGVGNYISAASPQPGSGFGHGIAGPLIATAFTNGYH

The target of the next series is ELAVL2 (UniProt Q12926). In outline:
as §1

The target in the next series is T1, MEX3A (UniProt A1L020).
T1 sequence: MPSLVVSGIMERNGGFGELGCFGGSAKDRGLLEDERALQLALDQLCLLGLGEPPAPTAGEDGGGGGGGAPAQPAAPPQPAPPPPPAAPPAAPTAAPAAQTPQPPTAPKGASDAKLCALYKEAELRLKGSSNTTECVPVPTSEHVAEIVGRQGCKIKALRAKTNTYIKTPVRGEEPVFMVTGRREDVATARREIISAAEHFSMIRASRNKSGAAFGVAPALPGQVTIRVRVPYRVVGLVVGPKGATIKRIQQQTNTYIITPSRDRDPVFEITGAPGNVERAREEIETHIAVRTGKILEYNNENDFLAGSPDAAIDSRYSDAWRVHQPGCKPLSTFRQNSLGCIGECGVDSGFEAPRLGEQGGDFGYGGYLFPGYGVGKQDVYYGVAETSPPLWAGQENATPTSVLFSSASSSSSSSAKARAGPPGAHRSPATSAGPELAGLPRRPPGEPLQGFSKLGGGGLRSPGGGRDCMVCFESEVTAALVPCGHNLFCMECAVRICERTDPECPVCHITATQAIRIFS
In outline:
as §1

Another series deals with RPS16 (UniProt P62249). In outline: as §1
The target in a further series is HNRNPAB (UniProt Q99729). In outline: as §1
HNRNPAB, sequence (Q99729 whole entry): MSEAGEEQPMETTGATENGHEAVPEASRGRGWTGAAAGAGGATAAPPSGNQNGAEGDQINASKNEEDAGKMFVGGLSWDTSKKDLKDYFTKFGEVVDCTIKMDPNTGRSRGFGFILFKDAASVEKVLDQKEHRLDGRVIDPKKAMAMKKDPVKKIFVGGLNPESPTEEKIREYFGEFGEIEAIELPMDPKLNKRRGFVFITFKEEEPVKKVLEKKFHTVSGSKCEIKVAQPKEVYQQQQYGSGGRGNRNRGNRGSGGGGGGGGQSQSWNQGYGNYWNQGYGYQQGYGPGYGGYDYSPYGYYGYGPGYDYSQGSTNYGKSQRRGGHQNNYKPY
The target in another series is T2, AQR (UniProt O60306).
T2 sequence: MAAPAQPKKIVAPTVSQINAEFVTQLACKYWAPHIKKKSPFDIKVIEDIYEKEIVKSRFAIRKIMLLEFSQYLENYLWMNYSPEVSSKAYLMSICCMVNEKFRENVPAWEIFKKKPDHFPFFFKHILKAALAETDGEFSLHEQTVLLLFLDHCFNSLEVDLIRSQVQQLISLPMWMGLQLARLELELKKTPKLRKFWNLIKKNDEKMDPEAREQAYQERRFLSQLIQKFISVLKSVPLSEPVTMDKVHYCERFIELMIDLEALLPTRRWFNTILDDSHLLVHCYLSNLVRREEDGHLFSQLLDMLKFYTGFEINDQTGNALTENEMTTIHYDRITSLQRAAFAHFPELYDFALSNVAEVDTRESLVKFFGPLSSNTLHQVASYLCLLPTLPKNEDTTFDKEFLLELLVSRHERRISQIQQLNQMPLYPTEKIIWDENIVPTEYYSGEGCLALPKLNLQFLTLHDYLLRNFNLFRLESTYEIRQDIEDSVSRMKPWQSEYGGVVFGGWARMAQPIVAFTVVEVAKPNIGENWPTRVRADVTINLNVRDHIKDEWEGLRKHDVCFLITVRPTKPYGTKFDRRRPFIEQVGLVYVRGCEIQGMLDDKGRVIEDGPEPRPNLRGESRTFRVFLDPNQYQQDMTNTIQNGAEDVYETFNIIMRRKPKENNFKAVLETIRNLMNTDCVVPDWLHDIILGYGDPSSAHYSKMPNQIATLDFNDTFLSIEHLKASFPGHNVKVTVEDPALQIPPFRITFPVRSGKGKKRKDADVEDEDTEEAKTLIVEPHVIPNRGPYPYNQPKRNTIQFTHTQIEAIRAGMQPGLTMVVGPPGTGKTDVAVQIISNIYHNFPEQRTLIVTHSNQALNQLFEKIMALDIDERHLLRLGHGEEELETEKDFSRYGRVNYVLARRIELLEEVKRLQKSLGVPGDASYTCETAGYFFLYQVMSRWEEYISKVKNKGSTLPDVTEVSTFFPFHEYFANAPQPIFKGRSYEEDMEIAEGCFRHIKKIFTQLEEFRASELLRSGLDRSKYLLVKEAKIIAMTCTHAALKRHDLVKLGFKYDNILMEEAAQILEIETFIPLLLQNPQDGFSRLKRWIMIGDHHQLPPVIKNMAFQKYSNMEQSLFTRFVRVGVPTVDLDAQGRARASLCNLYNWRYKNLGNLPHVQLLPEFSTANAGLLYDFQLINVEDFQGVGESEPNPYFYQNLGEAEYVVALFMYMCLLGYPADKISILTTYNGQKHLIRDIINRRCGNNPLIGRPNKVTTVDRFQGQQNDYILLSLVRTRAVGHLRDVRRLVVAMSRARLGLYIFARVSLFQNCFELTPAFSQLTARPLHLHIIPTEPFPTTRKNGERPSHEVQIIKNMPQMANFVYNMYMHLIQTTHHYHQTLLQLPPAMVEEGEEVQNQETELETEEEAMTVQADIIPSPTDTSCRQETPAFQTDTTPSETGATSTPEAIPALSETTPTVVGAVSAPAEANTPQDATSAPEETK
An outline of the steps: as §1

ELAVL2, sequence (Q12926 whole entry): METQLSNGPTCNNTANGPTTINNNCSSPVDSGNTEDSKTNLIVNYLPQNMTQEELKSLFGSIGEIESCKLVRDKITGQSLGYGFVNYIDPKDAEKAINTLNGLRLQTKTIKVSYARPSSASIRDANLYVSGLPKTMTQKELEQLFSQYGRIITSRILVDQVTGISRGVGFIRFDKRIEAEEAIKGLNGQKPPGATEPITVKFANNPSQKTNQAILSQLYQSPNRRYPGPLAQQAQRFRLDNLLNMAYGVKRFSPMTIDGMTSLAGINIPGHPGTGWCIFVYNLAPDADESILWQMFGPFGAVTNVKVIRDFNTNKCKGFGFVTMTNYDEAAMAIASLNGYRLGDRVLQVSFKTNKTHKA

For the sequence AAUAAA, the 50% effective concentration (EC50) in the series with MSI2 amounted to 826 nM; with ELAVL2, 9.74 µM; with MEX3A, 1470 nM; in the series with RPS16, 764 nM; with HNRNPAB it was 3.01 µM; in the series with AQR, 877 nM.

On to CUGUCCU, for which the EC50 in the series with RPS16 stood at 175 nM.

Consider UAUUUAU, for which the EC50 is 803 nM with MSI2; 3.84 µM with ELAVL2; 989 nM with MEX3A; 3.09 µM with HNRNPAB; 706 nM in the series with AQR.
